{
  "source": "paper PMC5159797",
  "about": "“Phosphorylation of SKAP by GSK3β ensures chromosome segregation by a temporal inhibition of Kif2b activity” (Scientific Reports, 2016)",
  "binders": {"B1": {"name": "GST-SKAP (natural protein, UniProt Q9Y448 1-316, looked up)", "chain": "MAAPEAPPLDRVFRTTWLSTECDSHPLPPSYRKFLFETQAADLAGGTTVAAGNLLNESEKDCGQDRRAPGVQPCRLVTMTSVVKTVYSLQPPSALSGGQPADTQTRATSKSLLPVRSKEVDVSKQLHSGGPENDVTKITKLRRENGQMKATDTATRRNVRKGYKPLSKQKSEEELKDKNQLLEAVNKQLHQKLTETQGELKDLTQKVELLEKFRDNCLAILESKGLDPALGSETLASRQESTTDHMDSMLLLETLQEELKLFNETAKKQMEELQALKVKLEMKEERVRFLEQQTLCNNQVNDLTTALKEMEQLLEM", "notes": "SKAP (small kinetochore-associated protein), full length, cloned into pGEX-5X-3; also called GST-tagged SKAP full length; GST-SKAP-WT; source: E. coli Rosetta (DE3), purified on glutathione-sepharose 4B"}},
  "biological_target": "T1, His-GSK3β (human, UniProt P49841 1-420)",
  "T1 construct": "GSK3β; the construct is not described further; The pull-down methods speak of His-tagged fusion proteins expressed in bacterial cells, the protein methods of insect cells; also called 6×His-GSK3β; His-tagged GSK3β; source: insect cells, purified (Ni-NTA agarose)",
  "T1 sequence (P49841 whole entry, the tested form may be a part)": "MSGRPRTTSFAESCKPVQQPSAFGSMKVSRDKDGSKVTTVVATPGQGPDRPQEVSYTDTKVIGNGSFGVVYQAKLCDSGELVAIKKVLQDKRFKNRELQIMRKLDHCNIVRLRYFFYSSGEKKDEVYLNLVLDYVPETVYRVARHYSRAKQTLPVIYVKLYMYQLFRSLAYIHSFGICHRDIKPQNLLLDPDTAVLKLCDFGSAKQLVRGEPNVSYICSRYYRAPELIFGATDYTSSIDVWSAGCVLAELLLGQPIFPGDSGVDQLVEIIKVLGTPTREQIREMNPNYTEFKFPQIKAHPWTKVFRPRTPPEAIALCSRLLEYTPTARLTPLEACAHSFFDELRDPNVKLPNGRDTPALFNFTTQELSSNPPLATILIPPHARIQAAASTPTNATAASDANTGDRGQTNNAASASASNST",
  "assay": "pull-down; GST fusion protein-bound sepharose beads incubated 2 h at 4 °C with purified MBP fusion proteins or His-tagged protein; PBS, 0.1% Triton X-100; anti-MBP or anti-His blot",
  "settings": "both partners purified",
  "data": [
    {"binder": "B1", "values": [
      {"measurement": "binding result", "value": "binds"}
    ]}
  ]
}
